Assay results from patent publication US20240043505A1 (UNIVERSITY OF PITTSBURGH OF THE COMMONWEALTH SYSTEM OF …, published 2024).
Positions count from the first letter of the chain named.

B1: Nb24 (VHH)
VHH: QVQLVESGGGLVQAGGSLRLTCAASGGTFSTSTMDMGWFRQAPGKEREFVALDSWNGGRTYYADSVKGRFTISRDNAKNTLYLQMNSLKPEDTAVYYCAADTYSNYEKDDSWGYWGQGTQVTVSS
B2: Nb26 (VHH)
VHH: B1 VHH with Q1H, G27R, T31I, L52A, S54A, G57D, A99T, E107K
B3: Nb29 (VHH)
VHH: B1 VHH with Q1H, L52V, G57D, T60A, D101E, D109A, D110Y
B4: Nb32 (VHH)
VHH: DVQLVESGGGLVQAGGSLRLSCAASGRTFSSDTMDMGWFRQAPGKEREFVALHSWNGGKTYYADSVKGRFTISRDNAKNTLYLQMNNLKPEDTAVYYCAAETYTLYEKDSSWGYWGQGTQVTVSS
B5: Nb41 (VHH)
VHH: DVQLVESGGGLVQAGGSLRLSCAASGFTFSNYVMYWGRQAPGKGREWVSGIDSDGSDTAYASSVKGRFTISRDNAKKTLYLQMNDLKPEDTALYYCVKSKDRYGSPWTRSEFEDYWGQGTQVTVSS
B6: Nb2 (VHH)
VHH: QVQLVESGGGLVQAGGSLRLSCAASGRTFSIYNMGWFRQAPGKEREFVIHMNWSNGNTATAASVKDRFTISRDNAKNTVYLQMSSLKPEDTAVYYCHATTNDYDYWGQGTQVTVSS
B7: Nb3 (VHH)
VHH: HVQLVESGGGLVQAGGSLRLSCVASGSGFEPNAMGWYRQAPGKQRELVAGITSGGNTNYADSVKGRFTISRDNVKNTVYLQMNSLKPEDTAVYYCNAVAPRINPRGSPTNYWGQGTQVTVSS
B8: Nb4 (VHH)
VHH: B7 VHH with H1Q, T57A, A99G, I102F
B9: Nb6 (VHH)
VHH: HVQLVESGGGLVQAGGSLRLSCAASGRTFSTHATGWFRQAPGKEREFLATSVWLDDISRDSTYYAESVKGRFSISRDNAKDTVYLQMNSLKPEDTAVYYCAVKQRVGPGIMSAPTYDYWGQGTQVTVSS
B10: Nb10 (VHH)
VHH: DVQLVESGGGLVQAGGSLKLSCTASESTFNFNHIDWYRQAPGKQRESVAVITNTDVTNYADSVKGRFTISRDNAKNTVYLQMNSLKPEDTAVYLCNAWRFGPTGVKVDYWGQGTQVTVSS
B11: Nb12 (VHH)
VHH: HVQLVESGGGLVQAGGSLRLTCAASGGTFSTSTMDMGWFRQAPGKEREFVAVDSWNDGRAYYADSVKGRFTISRDSAKTTLYLQMNSLKPEDTAVYYCAARTERGVYDYWGRGTQVTVSS
B12: Nb15 (VHH)
VHH: EVQLVESGGGLVAAGGSLRLSCVPSTNIFSANAMGWYRQAPGKQRELVASITSGGNTNYADSVKGRFTISRDNADTVILQMNSLKPEDTAVYYCKGTAYSTTYNSVRDYWGQGTQVTVSS
B13: Nb18 (VHH)
VHH: DVQLVESGGGLVQAGGSLRLSCAASGRTFSSYNVGWFRQAPGKEREFVAFIRWSGTSTYYADSVKGRFTISRDNAKNTVYLQMNSLKPEDTAVYYCAATSRTMIHTSQAMPINWDYWGQGTQVTVSS
B14: Nb84 (VHH)
VHH: B13 VHH with N33S, V34M, E89D, T99S, I104N, H105T, T106I, A109T, P111R
B15: Nb100 (VHH)
VHH: B13 VHH with D1E, R27L, V34M, N74T, P88L, A109T, P111R
B16: Nb37 (VHH)
VHH: QVQLVESGGGLVQTGGSLRLSCAASGRTFSNYVMGWFRQAPGKEREFVSSIEWNSENTFYANSVKGRFTISRDNAKNTVYLQMNSLKAEDTAVYYCAADRGSSYYYTRASEYTYWGQGTQVTVSS
B17: Nb39 (VHH)
VHH: QVQLVESGGGLVQAGGSLRLSCAASGRTFRFSAIDWYRQAPGQQREFVASISTSGRISYGHFVKGRFTISRDNAKNTMYLQMNSLKPEDTAVYYCHLAQPDVFGGGDYWGQGTQVTVSS
B18: Nb42 (VHH)
VHH: HVQLVESGGGLVQAGESLRLSCVASGSIFSINAMGWFRQAPGKQRELVASISNIGTTIYAESVKGRFTISRDNAKNTADLQMNSLKPEDTAIYYCNLRQGCSYNGCDEYWGQGTQVTVSS
B19: Nb43 (VHH)
VHH: EVQLVESGGGLVQAGGSLRLTCAASGRTFSSSTMDMGWFRQAPGKEREFVAVDAWNDGRTYYADSVKGRFTISRDNAKNTLYLQMNSLKPEDTAIYYCNLRQGCSYNGCDEYWGQGTQVTVSS
B20: Nb46 (VHH)
VHH: QVQLVESGGGLVQAGGSLRLSCAVSGSTLGINAIGWYRQPPGKQRELVASISSLGTTLYAESVKGRFAISRDNAKNTGYLQMNSLKPDDTAVYYCNMRTPYMRDYWGQGTQVTVSS
B21: Nb55 (VHH)
VHH: DVQLVESGGGLVQAGGSLRLSCAASGRTFGSTMAWFRQAPGKERDFVAAITWSADRISYADSVKGRFTISRDNDKNIVHLQMNSLKPEDTAVYVCAARASSNTYDDPRSFAFWGQGTQVTVSS
B22: Nb58 (VHH)
VHH: QVQLVESGGGLVQAGGSLRLSCAASGRDFSSTVMGWFRQAPGKERELVAWMTVTYDITYYADSVKGRFTISKDNAKNTVYLQANSLKPDDTAVYYCASGALRVGSFSPDYWGQGTQVTVSS
B23: Nb60 (VHH)
VHH: HVQLVESGGGLVQAGDSLRLSCAASERTNINYAMGWFRQAPGKERDFVAAIGWNGSIIKYAESVKGRFTISRDDAKNTVSLQMNSLKPEDTAVYYCAARIGSIANLQPREYEFAYWGQGTQVTVSS
B24: Nb62 (VHH)
VHH: HVQLVESGGGLVQAGGSLRLTCAASGRTFSSSTMDMGWFRQAPGKEREFVAVDAWNDGRTYYADSVKGRFTISRDNAKNTLYLQMNSLKPGDTAVYYCHAVDVSVGGDYWGQGTQVTVSS
B25: Nb63 (VHH)
VHH: QVQLVESGGGLVQAGGSLRLSCVASGSGFEPNAMGWYRQAPGKQRELVAGITSGGNANYADSVKGRFTISRDNVKNTVYLQMNSLKPEDTAVYYCQGPACSGSGCRNYWGQGTQVTVSS
B26: Nb68 (VHH)
VHH: QVQLVESGGGLVQAGGSLRLSCAASGGTLRSYNMGWFRQGPGKEREFVAAISWTGLGTYYGDSVKGRFTISRDVIKNTLYLQMDSLKPEDTAIYYCAADSSTSRLHSAGSDYRYWGQGTQVTVSS
B27: Nb74 (VHH)
VHH: HVQLVESGGGLVQAGGSLRLSCAASGRTFSSHAMAWFRQAPGKEREFVAGISWSGPYYVDSVKGRFTISTDNAKNTVYLQMNSLTPEDTAVYYCASSRGPNLYPHIGDVEYWGQGTQVTVSS
B28: Nb76 (VHH)
VHH: DVQLVESGGGLVQAGGSLRLSCAVSGRTFSISTMGWFRQAPGKERLFVAGITWHDGSTNYADSVKGRFTISRDNAKNTVYLQMNSLKPEDTALYYCAARKSINYVQEYDYWGRGTQVTVSS
B29: Nb80 (VHH)
VHH: HVQLVESGGGLVQPGGSLRLSCAASGNFFLINVMSWWRQAPGNEHELHELVATITSDGRTNYGDAVQGRFTISRDNAKNTLYLQMNSLKPEDTAVYYCYAQGQGNREYWGQGTQVTVSS
B30: Nb90 (VHH)
VHH: HVQLVESGGGLVQAGGSLRLSCAVSGRTVSSYVMGWFRQAPGKEREFVAGIGRTGMTITADSVKGRFTISRDNAKNLVYLQMNSLKSEDTAVYWCAAGVRDFAPRIDSYDYWGQGTQVTVSS
B31: Nb91 (VHH)
VHH: HVQLVESGGGLVQPGGSLRLSCAASGLTLNDYAIGWFRQAPGKEREGVSCISSSDGTTYYADSVKGRFTISRDNAKNTVYLQMNSLKPEDTAVYYCATDIAPFYCSWPLRTRLVEYWGQGTQVTVSS
B32: Nb92 (VHH)
VHH: HVQLVESGGGLVQAGGSLRLSCAASGRTFSAYGMGWFRQAPGKEREFVAGIARSGSEYYGDSVKGRFTISRDNAKNTVYLQMASLKAEDTGVYYCAADPTILYHALSQRTQNYRYWGPGTQVTVSS
B33: Nb93 (VHH)
VHH: EVQLVESGGGLVQPGGSLRLSCAASGFTFSSYAMSWVRQAPGKGREWVAGITPGSGTFYADSVKGRFTISRDNAKNTLSLEINSLKPEDTALYYCAKCRQEFSWDFSSRDPDDFDYWGQGTQVTVSS
B34: Nb94 (VHH)
VHH: QVQLVESGGGLVQAGGSLRLSCTASGGTFRSFTMAWFRQAPGKEREFVATLSWTGVGTYYADSVKGRFTISRDIAKNTVYLEMNSLIPEDTAVYYCAASPYTYSLLSRTGDYGYWGQGTQVTVSS
B35: Nb96 (VHH)
VHH: HVQLVESGGGLVQAGDSLRLSCAASGRDFSSYAMGWFRQAPGKEREFVGVISSGDVGTFYEDSVKGRFTISRDDAKNTVDLQMNSLKPEDTAVYYCAAALYVTSTRGSYAYWGQGTQVTVSS
B36: Nb102 (VHH)
VHH: QVQLVESGGGLVQAGGSLRLSCAASGRTFSNSHMGWFRQAPGKEREFVAVISRSGGSTLYADSVKGRFTISRDNAKNTVYLQMNSLKPEDTAVYYCAASRTAGLTSNRSLYDYWGRGTQVTVSS

Biological target: SARS-CoV-2 spike receptor-binding domain (RBD) (SARS-CoV-2, UniProt P0DTC2 319-541)
Test: indirect ELISA, RBD coated on plate, 4PL fit

Binder	ELISA affinity
B1	0.77 nM
B2	0.92 nM
B3	1.25 nM
B4	2.17 nM
B5	0.2 nM
B6	4.82 nM
B7	0.48 nM
B8	0.67 nM
B9	0.57 nM
B10	0.24 nM
B11	539 nM
B12	0.47 nM
B13	0.57 nM
B14	0.53 nM
B15	1.04 nM
B16	0.38 nM
B17	1.49 nM
B18	0.66 nM

Binder	ELISA affinity
B19	664 nM
B20	25.9 nM
B21	2.24 nM
B22	2.68 nM
B23	138 nM
B24	85.7 nM
B25	0.84 nM
B26	6.11 nM
B27	67.1 nM
B28	0.17 nM
B29	5.09 nM
B30	4.03 nM
B31	1.28 nM
B32	4.92 nM
B33	1.15 nM
B34	0.5 nM
B35	0.04 nM
B36	28.4 nM
